# Reference: the RNAGym collection of RNA variant scans (doi:10.7554/elife.90254)
# B1: LINE1-mini (parent)
# chain: GGCAGAGCUCAACACAGCGUGGCAAAGUGGCUGUGGCUAGACUGCC
# Variants of: B1
# Assay: self-cleavage, relative activity (ratio to wild type); higher = more cleavage; in vitro, sequencing; the parent is a self-cleaving ribozyme
row,Variant,self-cleavage
1,GGCAGAGCUCAACACAGCGUGGCAAAGAGGCUGUGGCUAGCCUGCC [U28A A41C],0.03
2,GGCAGAGCUAAACACAGCGUGGCAAAGUGGCUGUGGCUAAACUGCC [C10A G40A],0.02
3,GGCAUAGCUCAACACAGCGUGGCAAAGUGGCUGUGGCUAGACUGGC [G5U C45G],0.08
4,GGCAGAGCUCAACAAAGCGUGGCGAAGUGGCUGUGGCUAGACUGCC [C15A A24G],0.07
5,GGCAGAGCUCAUCACAGCGUGGCAAAGUGGCUGUGACUAGACUGCC [A12U G36A],0.04
6,GGCAGAGCUCAACACAGCGUGGCAUAGUAGCUGUGGCUAGACUGCC [A25U G29A],0.79
7,GGCAGAGCUCAACAUAGCGUGGCAAAGUGGCUGUUGCUAGACUGCC [C15U G35U],0.13
8,CGCAGAGCUCAACACAGCGUGGCAAAGUGGCUGUGGCUGGACUGCC [G1C A39G],0.01
9,GGGAGAGCUCAACACAGCGUGGCAAAGUGGCUGUGGCUAGACUGGC [C3G C45G],1.97
10,GGCAGAGCUCAACACAGCGUGGCAAAAUGGCUGUGGCGAGACUGCC [G27A U38G],0.02
11,GGCAGAGCACAACACAGCAUGGCAAAGUGGCUGUGGCUAGACUGCC [U9A G19A],0.15
12,GGCAGAGCUCAACACAGCGUGGCAAAGUGGCUGUUGCUAGACUGCG [G35U C46G],0.09
13,GGCAGAGCUCAACACAGCGUGGCAAUGUGGUUGUGGCUAGACUGCC [A26U C31U],0.18
14,GGCAGAGCUCUACACAACGUGGCAAAGUGGCUGUGGCUAGACUGCC [A11U G17A],0.04
15,GGCAGAGCUCAACACAGCGUGGCAAAGUGGGUGUGGCUAGAGUGCC [C31G C42G],0.06
16,GGCAGAGCUCAACACUGCGUGGCAAAGUGGCUGUGACUAGACUGCC [A16U G36A],0.06
17,GGCAGAGCUCAACACAGCGUGGCAAAGGGGCUGUGGCUAGACGGCC [U28G U43G],0
18,GGCAGAGCUCAACACAGCGAGGCAAAGUGGCUGUGGCUAUACUGCC [U20A G40U],0.08
19,AGCAGAGCUCAACACAGCGUGGCAAAGUGGCUGUGGCUAGAAUGCC [G1A C42A],0.06

row,Variant,self-cleavage
1,GGCAGAGCUCAACACAGAGUGGCAAAGUUGCUGUGGCUAGACUGCC [C18A G29U],1.07
2,GGCAGAACUCAACACAGCGUGGCAAAGUGGCUGUGCCUAGACUGCC [G7A G36C],0.27
3,GGCAGUGCUCAACACAGCGUGGCAAAGUGGCUGUGGCUAGAUUGCC [A6U C42U],0.42
4,GGCAGAGCUCAACACGGCGUGGCAAAGUCGCUGUGGCUAGACUGCC [A16G G29C],0.4
5,GGCAGAGCUCAACACAGCGUGUCACAGUGGCUGUGGCUAGACUGCC [G22U A25C],0.65
6,GGCAGAGCUCAACGCAGCGUCGCAAAGUGGCUGUGGCUAGACUGCC [A14G G21C],0.24
7,GGCAGAGCUCAACACAGCGCGGCAAAGUGGCUGUGGCUAGACUGCC [U20C],0.66
8,GGCAGCGCUCAGCACAGCGUGGCAAAGUGGCUGUGGCUAGACUGCC [A6C A12G],0.04
9,GGCAGAGCUCAACACAGCGUGGCUAAGUGGCUGUGUCUAGACUGCC [A24U G36U],0.05
10,GGCAGAGCUGAACACAGCGUGGCACAGUGGCUGUGGCUAGACUGCC [C10G A25C],0.1
11,CGCAGAGCUCAACACAGCGUGGCCAAGUGGCUGUGGCUAGACUGCC [G1C A24C],0.07
12,GGCAGAGCUCAACACAACGGGGCAAAGUGGCUGUGGCUAGACUGCC [G17A U20G],0.07
13,GGCAGUGCCCAACACAGCGUGGCAAAGUGGCUGUGGCUAGACUGCC [A6U U9C],0.08
14,GGCAGAGCUUAACACAGCGUGGCAAAGUGGCUAUGGCUAGACUGCC [C10U G33A],0.05
15,GGCAGAGCUCAACACAGCGUGGCAAAGUGGCUGUGGUUAGACUCCC [C37U G44C],0.05
16,GGCAGAGCUCAACAGAGGGUGGCAAAGUGGCUGUGGCUAGACUGCC [C15G C18G],0.05
17,GGCAGAGCUCAACACAGCGUGGGAAAGAGGCUGUGGCUAGACUGCC [C23G U28A],0.7
18,GGCAUAGCUCAAUACAGCGUGGCAAAGUGGCUGUGGCUAGACUGCC [G5U C13U],0.11
19,GGCAGAGUUCAACACAGCGUGGCAAAGUGGCUGUGGCUAGACUGCA [C8U C46A],0.33

row,Variant,self-cleavage
1,GGUAGAGCUCAACACAGCGUGGCAAACUGGCUGUGGCUAGACUGCC [C3U G27C],0.2
2,GGCAGAGCUCAACACAGCGUGGCAAAGUUGCUGUGGCUAGGCUGCC [G29U A41G],0.41
3,GGCAGAGCGCAACACAGCGUGGCAAAGUGGCUGUGGCGAGACUGCC [U9G U38G],0.01
4,GGCAGAGCUCAACACAGCGUGGCAAAGUGGCUUUGGCUAGACUGCC [G33U],0.11
5,GGCAGAGCUCAACACAGCGCGGCAAAGUGGCUGUGGCUGGACUGCC [U20C A39G],0.06
6,GGCAGAGCUCAAGACAGCGUAGCAAAGUGGCUGUGGCUAGACUGCC [C13G G21A],0.38
7,GGCAGAGCUCAACACAGCGUGCCAAAGUGGCUAUGGCUAGACUGCC [G22C G33A],0.07
8,GGCACAGCUCAACACAACGUGGCAAAGUGGCUGUGGCUAGACUGCC [G5C G17A],0.04
9,GGCAGAGCUCAUCACAGCGUAGCAAAGUGGCUGUGGCUAGACUGCC [A12U G21A],0.52
10,GGCAGAGCUCAGCACAGCGUGGCAAAGAGGCUGUGGCUAGACUGCC [A12G U28A],0.04
11,GGCAGAGCUCAACACAGCGUGGCAAAGUGGCUGUGGCUGGAUUGCC [A39G C42U],0.12
12,GGCAGAGCUCUACACAGCGUGGCAAUGUGGCUGUGGCUAGACUGCC [A11U A26U],0.12
13,GGCAGAGCUCAACACAGCGUAGCAAAGUGGCUGUGGCUAGACUGGC [G21A C45G],0.26
14,GGCAGAGCUCAACACAGCGUGGCAAAGUGGCUGUCACUAGACUGCC [G35C G36A],0.05
15,GGCAGAGCUCAACACCGCGUGGCAAAGCGGCUGUGGCUAGACUGCC [A16C U28C],0.03
16,GGCAGAGCUCAACACUGGGUGGCAAAGUGGCUGUGGCUAGACUGCC [A16U C18G],0.05
17,UGCAGAACUCAACACAGCGUGGCAAAGUGGCUGUGGCUAGACUGCC [G1U G7A],0.11
18,GGCAGAGCUCAACACAGCGUGGCAAUGAGGCUGUGGCUAGACUGCC [A26U U28A],0.88
